Among the data in article PMC12412652 (Science Advances, 2025) are Kd values, retold here.

Settings in all cases: both partners purified
One test addresses BCL-2, biotinylated (UniProt P10415 1-239, biotin). Put plainly: BLI; Octet RED96; biotinylated BCL-2 proteins (25 nM) immobilised on streptavidin biosensors; 10 mM Hepes pH 7.4, 150 mM NaCl, 3 mM EDTA, 0.05% surfactant P20, 0.5% nonfat dry milk; multiple-concentration titrations, 1:1 binding model.
In a further test the target is BCL-XL, biotinylated (UniProt Q07817-1 1-233, biotin). The description is as above.
For a further test, the target named is αBAX1. Put plainly: BLI; Octet RED96; biotinylated BCL-2 family proteins (25 nM) immobilised on streptavidin biosensors, designed protein in solution; 10 mM Hepes pH 7.4, 150 mM NaCl, 3 mM EDTA, 0.05% surfactant P20, 0.5% nonfat dry milk; titrations in triplicate, 1:1 binding model.
Another test deals with MBP-BIM-BH3. The test is described as above.
In test [1] the target is T1, BAK-CDP02 (BAK-targeting computationally designed protein 02 of 11).
T1 construct: Cloned into pET29b; source: E. coli, purified (Ni-NTA, SEC)
Described as above.

Another test concerns the target T2, αBAK1.
T2 construct: source: E. coli, purified
Described as above.

Another test concerns the target T3, αBAK2.
T3 construct: Form used for BLI and, as far as told, for the liposome and cytochrome c assays; source: E. coli, purified
Described as above.

BCL-XL, biotinylated, sequence (Q07817 whole entry): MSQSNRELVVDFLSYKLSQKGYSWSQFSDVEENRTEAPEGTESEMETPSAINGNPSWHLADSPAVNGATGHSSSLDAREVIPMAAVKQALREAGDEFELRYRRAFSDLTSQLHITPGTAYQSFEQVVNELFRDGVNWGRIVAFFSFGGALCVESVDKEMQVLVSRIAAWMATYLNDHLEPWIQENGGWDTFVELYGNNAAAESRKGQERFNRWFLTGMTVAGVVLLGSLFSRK
BCL-2, biotinylated, sequence (P10415 whole entry): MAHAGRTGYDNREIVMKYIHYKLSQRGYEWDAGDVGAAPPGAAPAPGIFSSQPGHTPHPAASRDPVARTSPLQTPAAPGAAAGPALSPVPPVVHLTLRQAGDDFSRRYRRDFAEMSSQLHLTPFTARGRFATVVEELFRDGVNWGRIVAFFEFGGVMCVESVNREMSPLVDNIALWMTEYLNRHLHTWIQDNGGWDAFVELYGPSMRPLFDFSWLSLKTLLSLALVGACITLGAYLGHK

B1: MBP-BidBH3 (domain or fragment, UniProt P55957 1-195, looked up)
chain: MDCEVNNGSSLRDECITNLLVFGFLQSCSDNSFRRELDALGHELPVLAPQWEGYDELQTDGNRSSHSRLGRIEADSESQEDIIRNIARHLAQVGDSMDRSIPPGLVNGLALQLRNTSRSEEDRNRDLATALEQLLQAYPRDMEKEKTMLVLALLLAKKVASHTPSLLRDVFHTTVNFINQNLRTYVRSLARNGMD
notes: BH3 peptide of the BH3-only protein BID, fused to MBP
Consider B1, for which the Kd with BCL-2, biotinylated amounted to 47 ± 5 nM; with BCL-XL, biotinylated it was 2.3 ± 0.4 nM.

B2: BFL-1 (natural protein)
chain: MTDCEFGYIYRLAQDYLQCVLQIPQPGSGPSKTSRVLQNVAFSVQKEVEKNLKSCLDNVNVVSVDTARTLFNQVMEKEFEDGIINWGRIVTIFAFEGILIKKLLRQQIAPDVDTYKEISYFVAEFIMNNTGEWIRQNGGWENGFVKKFEPKSG
modifications: biotin
B2 registered a Kd in the test with αBAX1 of 5 nM.

B3: MBP-BAK 16-186, biotinylated (Avi tag, 6-histidine tag) (domain or fragment)
chain: EPALPSASEEQVAQDTEEVFRSYVFYRHQQEQEAEGVAAPADPEMVTLPLQPSSTMGQVGRQLAIIGDDINRRYDSEFQTMLQHLQPTAENAYEYFTKIATSLFESGINWGRVVALLGFGYRLALHVYQHGLTGFLGQVTRFVVDFMLHHCIARWIAQRGGWVAALNLGNGLEGLNDIFEAQKIEWHEGSHHHHHH
modifications: biotin on the Avi tag (enzymatic, BirA)
Take B3: the Kd was 4000 ± 2000 nM with MBP-BIM-BH3, 60 nM in test [1], 7 nM with αBAK1 and 0.4 nM with αBAK2.
